# Data reported in US12679878B2, “CRF2 receptor agonists and their use in therapy” (SANOFI, priority 2020, dated 2026).
# Starred links: 1 amine or outer side, 2 acyl side, 3 side chain; linkers in the order of their positions; H or OH if unused. Non-standard residues stand in square brackets, D forms with d. Groups on a side chain read outwards from the residue. No end group written: not given here. *: point of attachment. C18 diacid = O=C(O)CCCCCCCCCCCCCCCCC(=O)*; γGlu = O=C(O)[C@H](CCC(=O)[*:2])N[*:1]; AEEA = NCCOCCOCC(=O)O; Aib = CC(C)(N)C(=O)O
# B1: peptide of SEQ ID NO: 158 (peptide)
# peptide: Ac-IVLSLD[dV]PIKLK([AEEA-AEEA-γGlu-C18 diacid])QILLEQERQK[Aib]QREQAEKNKQILEQV-NH2
# SMILES: CC[C@H](C)[C@H](NC(C)=O)C(=O)N[C@H](C(=O)N[C@@H](CC(C)C)C(=O)N[C@@H](CO)C(=O)N[C@@H](CC(C)C)C(=O)N[C@@H](CC(=O)O)C(=O)N[C@@H](C(=O)N1CCC[C@H]1C(=O)N[C@H](C(=O)N[C@@H](CCCCN)C(=O)N[C@@H](CC(C)C)C(=O)N[C@@H](CCCCNC(=O)COCCOCCNC(=O)COCCOCCNC(=O)CC[C@H](NC(=O)CCCCCCCCCCCCCCCCC(=O)O)C(=O)O)C(=O)N[C@@H](CCC(N)=O)C(=O)N[C@H](C(=O)N[C@@H](CC(C)C)C(=O)N[C@@H](CC(C)C)C(=O)N[C@@H](CCC(=O)O)C(=O)N[C@@H](CCC(N)=O)C(=O)N[C@@H](CCC(=O)O)C(=O)N[C@@H](CCCNC(=N)N)C(=O)N[C@@H](CCC(N)=O)C(=O)N[C@@H](CCCCN)C(=O)NC(C)(C)C(=O)N[C@@H](CCC(N)=O)C(=O)N[C@@H](CCCNC(=N)N)C(=O)N[C@@H](CCC(=O)O)C(=O)N[C@@H](CCC(N)=O)C(=O)N[C@@H](C)C(=O)N[C@@H](CCC(=O)O)C(=O)N[C@@H](CCCCN)C(=O)N[C@@H](CC(N)=O)C(=O)N[C@@H](CCCCN)C(=O)N[C@@H](CCC(N)=O)C(=O)N[C@H](C(=O)N[C@@H](CC(C)C)C(=O)N[C@@H](CCC(=O)O)C(=O)N[C@@H](CCC(N)=O)C(=O)N[C@H](C(N)=O)C(C)C)[C@@H](C)CC)[C@@H](C)CC)[C@@H](C)CC)C(C)C)C(C)C
# B2: peptide of SEQ ID NO: 45 (peptide)
# peptide: IVLSLDVPIKLK([AEEA-AEEA-γGlu-C18 diacid])QILLEQAKQK[Aib]LKAQAETNVRILERV-NH2
# modifications: N-terminus assumed
# SMILES: CC[C@H](C)[C@H](N)C(=O)N[C@H](C(=O)N[C@@H](CC(C)C)C(=O)N[C@@H](CO)C(=O)N[C@@H](CC(C)C)C(=O)N[C@@H](CC(=O)O)C(=O)N[C@H](C(=O)N1CCC[C@H]1C(=O)N[C@H](C(=O)N[C@@H](CCCCN)C(=O)N[C@@H](CC(C)C)C(=O)N[C@@H](CCCCNC(=O)COCCOCCNC(=O)COCCOCCNC(=O)CC[C@H](NC(=O)CCCCCCCCCCCCCCCCC(=O)O)C(=O)O)C(=O)N[C@@H](CCC(N)=O)C(=O)N[C@H](C(=O)N[C@@H](CC(C)C)C(=O)N[C@@H](CC(C)C)C(=O)N[C@@H](CCC(=O)O)C(=O)N[C@@H](CCC(N)=O)C(=O)N[C@@H](C)C(=O)N[C@@H](CCCCN)C(=O)N[C@@H](CCC(N)=O)C(=O)N[C@@H](CCCCN)C(=O)NC(C)(C)C(=O)N[C@@H](CC(C)C)C(=O)N[C@@H](CCCCN)C(=O)N[C@@H](C)C(=O)N[C@@H](CCC(N)=O)C(=O)N[C@@H](C)C(=O)N[C@@H](CCC(=O)O)C(=O)N[C@H](C(=O)N[C@@H](CC(N)=O)C(=O)N[C@H](C(=O)N[C@@H](CCCNC(=N)N)C(=O)N[C@H](C(=O)N[C@@H](CC(C)C)C(=O)N[C@@H](CCC(=O)O)C(=O)N[C@@H](CCCNC(=N)N)C(=O)N[C@H](C(N)=O)C(C)C)[C@@H](C)CC)C(C)C)[C@@H](C)O)[C@@H](C)CC)[C@@H](C)CC)C(C)C)C(C)C
# B3: peptide of SEQ ID NO: 131 (peptide)
# peptide: IVLSLD[dV]PIKLK([AEEA-AEEA-γGlu-C18 diacid])QILLEQERQK[Aib]QRQQAEKNKQILAQV-NH2
# modifications: N-terminus assumed
# SMILES: CC[C@H](C)[C@H](N)C(=O)N[C@H](C(=O)N[C@@H](CC(C)C)C(=O)N[C@@H](CO)C(=O)N[C@@H](CC(C)C)C(=O)N[C@@H](CC(=O)O)C(=O)N[C@@H](C(=O)N1CCC[C@H]1C(=O)N[C@H](C(=O)N[C@@H](CCCCN)C(=O)N[C@@H](CC(C)C)C(=O)N[C@@H](CCCCNC(=O)COCCOCCNC(=O)COCCOCCNC(=O)CC[C@H](NC(=O)CCCCCCCCCCCCCCCCC(=O)O)C(=O)O)C(=O)N[C@@H](CCC(N)=O)C(=O)N[C@H](C(=O)N[C@@H](CC(C)C)C(=O)N[C@@H](CC(C)C)C(=O)N[C@@H](CCC(=O)O)C(=O)N[C@@H](CCC(N)=O)C(=O)N[C@@H](CCC(=O)O)C(=O)N[C@@H](CCCNC(=N)N)C(=O)N[C@@H](CCC(N)=O)C(=O)N[C@@H](CCCCN)C(=O)NC(C)(C)C(=O)N[C@@H](CCC(N)=O)C(=O)N[C@@H](CCCNC(=N)N)C(=O)N[C@@H](CCC(N)=O)C(=O)N[C@@H](CCC(N)=O)C(=O)N[C@@H](C)C(=O)N[C@@H](CCC(=O)O)C(=O)N[C@@H](CCCCN)C(=O)N[C@@H](CC(N)=O)C(=O)N[C@@H](CCCCN)C(=O)N[C@@H](CCC(N)=O)C(=O)N[C@H](C(=O)N[C@@H](CC(C)C)C(=O)N[C@@H](C)C(=O)N[C@@H](CCC(N)=O)C(=O)N[C@H](C(N)=O)C(C)C)[C@@H](C)CC)[C@@H](C)CC)[C@@H](C)CC)C(C)C)C(C)C
# B4: peptide of SEQ ID NO: 157 (peptide)
# peptide: Ac-IVLSLD[dV]PIKLK([AEEA-AEEA-γGlu-C18 diacid])QILLEQARQK[Aib]QREQAEKNKQILEQV-NH2
# SMILES: CC[C@H](C)[C@H](NC(C)=O)C(=O)N[C@H](C(=O)N[C@@H](CC(C)C)C(=O)N[C@@H](CO)C(=O)N[C@@H](CC(C)C)C(=O)N[C@@H](CC(=O)O)C(=O)N[C@@H](C(=O)N1CCC[C@H]1C(=O)N[C@H](C(=O)N[C@@H](CCCCN)C(=O)N[C@@H](CC(C)C)C(=O)N[C@@H](CCCCNC(=O)COCCOCCNC(=O)COCCOCCNC(=O)CC[C@H](NC(=O)CCCCCCCCCCCCCCCCC(=O)O)C(=O)O)C(=O)N[C@@H](CCC(N)=O)C(=O)N[C@H](C(=O)N[C@@H](CC(C)C)C(=O)N[C@@H](CC(C)C)C(=O)N[C@@H](CCC(=O)O)C(=O)N[C@@H](CCC(N)=O)C(=O)N[C@@H](C)C(=O)N[C@@H](CCCNC(=N)N)C(=O)N[C@@H](CCC(N)=O)C(=O)N[C@@H](CCCCN)C(=O)NC(C)(C)C(=O)N[C@@H](CCC(N)=O)C(=O)N[C@@H](CCCNC(=N)N)C(=O)N[C@@H](CCC(=O)O)C(=O)N[C@@H](CCC(N)=O)C(=O)N[C@@H](C)C(=O)N[C@@H](CCC(=O)O)C(=O)N[C@@H](CCCCN)C(=O)N[C@@H](CC(N)=O)C(=O)N[C@@H](CCCCN)C(=O)N[C@@H](CCC(N)=O)C(=O)N[C@H](C(=O)N[C@@H](CC(C)C)C(=O)N[C@@H](CCC(=O)O)C(=O)N[C@@H](CCC(N)=O)C(=O)N[C@H](C(N)=O)C(C)C)[C@@H](C)CC)[C@@H](C)CC)[C@@H](C)CC)C(C)C)C(C)C
# B5: peptide of SEQ ID NO: 142 (peptide)
# peptide: IVLSLD[dV]PIKLK([AEEA-AEEA-γGlu-C18 diacid])QILLEQARQK[Aib]QREQAEKNKRILERV-NH2
# modifications: N-terminus assumed
# SMILES: CC[C@H](C)[C@H](N)C(=O)N[C@H](C(=O)N[C@@H](CC(C)C)C(=O)N[C@@H](CO)C(=O)N[C@@H](CC(C)C)C(=O)N[C@@H](CC(=O)O)C(=O)N[C@@H](C(=O)N1CCC[C@H]1C(=O)N[C@H](C(=O)N[C@@H](CCCCN)C(=O)N[C@@H](CC(C)C)C(=O)N[C@@H](CCCCNC(=O)COCCOCCNC(=O)COCCOCCNC(=O)CC[C@H](NC(=O)CCCCCCCCCCCCCCCCC(=O)O)C(=O)O)C(=O)N[C@@H](CCC(N)=O)C(=O)N[C@H](C(=O)N[C@@H](CC(C)C)C(=O)N[C@@H](CC(C)C)C(=O)N[C@@H](CCC(=O)O)C(=O)N[C@@H](CCC(N)=O)C(=O)N[C@@H](C)C(=O)N[C@@H](CCCNC(=N)N)C(=O)N[C@@H](CCC(N)=O)C(=O)N[C@@H](CCCCN)C(=O)NC(C)(C)C(=O)N[C@@H](CCC(N)=O)C(=O)N[C@@H](CCCNC(=N)N)C(=O)N[C@@H](CCC(=O)O)C(=O)N[C@@H](CCC(N)=O)C(=O)N[C@@H](C)C(=O)N[C@@H](CCC(=O)O)C(=O)N[C@@H](CCCCN)C(=O)N[C@@H](CC(N)=O)C(=O)N[C@@H](CCCCN)C(=O)N[C@@H](CCCNC(=N)N)C(=O)N[C@H](C(=O)N[C@@H](CC(C)C)C(=O)N[C@@H](CCC(=O)O)C(=O)N[C@@H](CCCNC(=N)N)C(=O)N[C@H](C(N)=O)C(C)C)[C@@H](C)CC)[C@@H](C)CC)[C@@H](C)CC)C(C)C)C(C)C
# B6: peptide of SEQ ID NO: 140 (peptide)
# peptide: IVLSLD[dV]PIKLK([AEEA-AEEA-γGlu-C18 diacid])QILLEQARQK[Aib]QRAQAEKNKRILERV-NH2
# modifications: N-terminus assumed
# SMILES: CC[C@H](C)[C@H](N)C(=O)N[C@H](C(=O)N[C@@H](CC(C)C)C(=O)N[C@@H](CO)C(=O)N[C@@H](CC(C)C)C(=O)N[C@@H](CC(=O)O)C(=O)N[C@@H](C(=O)N1CCC[C@H]1C(=O)N[C@H](C(=O)N[C@@H](CCCCN)C(=O)N[C@@H](CC(C)C)C(=O)N[C@@H](CCCCNC(=O)COCCOCCNC(=O)COCCOCCNC(=O)CC[C@H](NC(=O)CCCCCCCCCCCCCCCCC(=O)O)C(=O)O)C(=O)N[C@@H](CCC(N)=O)C(=O)N[C@H](C(=O)N[C@@H](CC(C)C)C(=O)N[C@@H](CC(C)C)C(=O)N[C@@H](CCC(=O)O)C(=O)N[C@@H](CCC(N)=O)C(=O)N[C@@H](C)C(=O)N[C@@H](CCCNC(=N)N)C(=O)N[C@@H](CCC(N)=O)C(=O)N[C@@H](CCCCN)C(=O)NC(C)(C)C(=O)N[C@@H](CCC(N)=O)C(=O)N[C@@H](CCCNC(=N)N)C(=O)N[C@@H](C)C(=O)N[C@@H](CCC(N)=O)C(=O)N[C@@H](C)C(=O)N[C@@H](CCC(=O)O)C(=O)N[C@@H](CCCCN)C(=O)N[C@@H](CC(N)=O)C(=O)N[C@@H](CCCCN)C(=O)N[C@@H](CCCNC(=N)N)C(=O)N[C@H](C(=O)N[C@@H](CC(C)C)C(=O)N[C@@H](CCC(=O)O)C(=O)N[C@@H](CCCNC(=N)N)C(=O)N[C@H](C(N)=O)C(C)C)[C@@H](C)CC)[C@@H](C)CC)[C@@H](C)CC)C(C)C)C(C)C
# Target: rat CRF2R α receptor (rat, UniProt P47866 20-411)
# Experiment: cell-based or functional assay
# rat CRF2R α receptor, sequence (P47866 20-411): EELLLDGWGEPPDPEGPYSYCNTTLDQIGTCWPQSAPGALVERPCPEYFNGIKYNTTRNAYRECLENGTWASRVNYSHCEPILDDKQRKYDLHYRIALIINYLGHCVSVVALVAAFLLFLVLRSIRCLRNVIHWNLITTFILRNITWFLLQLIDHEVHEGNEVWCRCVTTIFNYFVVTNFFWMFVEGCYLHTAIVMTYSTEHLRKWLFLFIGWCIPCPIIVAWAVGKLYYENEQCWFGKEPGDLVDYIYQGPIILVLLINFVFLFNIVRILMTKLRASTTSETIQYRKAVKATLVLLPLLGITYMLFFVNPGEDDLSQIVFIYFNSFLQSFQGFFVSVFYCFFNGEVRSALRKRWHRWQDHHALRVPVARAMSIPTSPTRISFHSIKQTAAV
row,"EC50 [nM], 0% HSA (cAMP, A7R5 cells)",Binder
1,5.29 nM,B1
2,47.3 nM,B2
3,0.39 nM,B3
4,1.14 nM,B4
5,0.2 nM,B5
6,0.1 nM,B6
